Results on one molecule are retold here after US20240400703A1 (Genmab, published 2024).

Positions count from the first letter of the chain named. In names and notes the source's numbering stands. Several values for one entry are separate records, joined by “and”; a condition that tells them apart may be missing. Equal values may be shown once.

Assay [1] concerns the target T1, human OX40 expressed on cells (human, UniProt P43489 29-277).
T1 construct: also called CD134; TNFRSF4
T1 sequence: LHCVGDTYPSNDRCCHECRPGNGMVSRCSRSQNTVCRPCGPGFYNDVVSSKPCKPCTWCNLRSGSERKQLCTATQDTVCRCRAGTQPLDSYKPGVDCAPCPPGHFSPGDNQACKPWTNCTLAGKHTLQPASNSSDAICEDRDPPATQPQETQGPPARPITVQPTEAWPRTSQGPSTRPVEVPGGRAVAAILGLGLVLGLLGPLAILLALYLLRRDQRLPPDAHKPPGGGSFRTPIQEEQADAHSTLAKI
Nature of the assay: flow cytometry, loss of sOX40L (2 µg/mL) binding to activated human CD4+ T cells; competitor sOX40L. The method, then: (§1) Stimulated PBMCs were pelleted, resuspended in FACS buffer 2 (DPBS with 2% heat-inactivated FBS [Sigma-Aldrich, cat. no. F7524] and 2 mM EDTA [Sigma-Aldrich, cat. no. 03690]), and seeded (100,000 cells/well) in round-bottom 96-well plates (VWR International GmbH, cat. no. 734-197). […] Next, cells were washed twice in FACS buffer, and incubated with 30 μL of the antibody panel described in Table 11 diluted in FACS buffer 2 containing 1:1,500 Fixable Viability Stain eFluor 780 at 4° C. for 20 min, protected from light. The cells were subsequently washed twice with 120-150 μL FACS buffer 2 and measured on a BD FACSCelesta flow cytometer using a BD High Throughput sampler and subsequent analysis was done using FlowJo software.

In assay [2] the target is T1, human OX40 expressed on cells. Nature of the assay: flow cytometry, activated human CD8+ T cells, without sOX40L, n=3. As for the experimental part: as §1
For assay [3], the target named is T2, human OX40 with mouse CRD4 (human with mouse CRD4, UniProt P43489 29-277).
T2 construct: on ExpiCHO-S cells; also called OX40-CRD4mm; Shuffle 4
T2 chain: T1 sequence with D109N, A122S, H125Q, L127R, Q128H, N132D, S134L, I137V
The experiment in a line: flow cytometry, transfected ExpiCHO-S cells, MFI at 5 µg/mL as % of IgG1-CD134-A4453. The method, then:
(§2) The four shuffle constructs, as well as wild-type human and mouse OX40 were transiently expressed on ExpiCHO-S cells using the ExpiFectamine™ CHO Transfection Kit (ThermoFisher, cat. no. A29131), according to the manufacturer's protocol. […] Next, cells were washed twice in FACS buffer 1, were resuspended in a 30 μL solution of viability marker ToPro-3 (Invitrogen, cat. no. T3605, diluted 1:10,000) in FACS buffer 1 supplemented with 2 mM EDTA, and were analyzed on an iQue Screener Plus (Intellicyt Corporation, USA). Data were analyzed using FlowJo software and visualized using GraphPad Prism.

Assay [4] addresses T3, human OX40 with mouse CRD2 (human with mouse CRD2, UniProt P43489 29-277).
T3 construct: on ExpiCHO-S cells; also called OX40-CRD2mm; Shuffle 2
T3 chain: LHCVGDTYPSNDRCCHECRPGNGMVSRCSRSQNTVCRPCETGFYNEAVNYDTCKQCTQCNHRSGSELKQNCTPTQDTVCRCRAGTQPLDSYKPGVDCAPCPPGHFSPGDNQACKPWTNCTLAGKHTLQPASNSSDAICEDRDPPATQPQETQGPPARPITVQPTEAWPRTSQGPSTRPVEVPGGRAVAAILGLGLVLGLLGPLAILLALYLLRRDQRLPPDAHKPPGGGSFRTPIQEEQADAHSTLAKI
The assay is described as above. As for the experimental part:
as §2

Assay [5] deals with T4, human OX40 with mouse CRD3 (human with mouse CRD3, UniProt P43489 29-277).
T4 construct: on ExpiCHO-S cells; also called OX40-CRD3mm; Shuffle 3
T4 chain: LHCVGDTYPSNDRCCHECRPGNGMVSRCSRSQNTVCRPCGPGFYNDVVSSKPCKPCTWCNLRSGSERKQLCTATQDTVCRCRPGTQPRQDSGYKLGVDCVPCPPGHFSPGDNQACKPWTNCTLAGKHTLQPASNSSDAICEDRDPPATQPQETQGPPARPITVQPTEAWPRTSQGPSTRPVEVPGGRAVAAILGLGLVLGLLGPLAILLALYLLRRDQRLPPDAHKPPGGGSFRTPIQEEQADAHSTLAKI
The assay is described as above. As for the experimental part: as §2

For assay [6], the target named is T5, human OX40 with mouse CRD1 (human with mouse CRD1, UniProt P43489 29-277).
T5 construct: on ExpiCHO-S cells; also called OX40-CRD1mm; Shuffle 1
T5 chain: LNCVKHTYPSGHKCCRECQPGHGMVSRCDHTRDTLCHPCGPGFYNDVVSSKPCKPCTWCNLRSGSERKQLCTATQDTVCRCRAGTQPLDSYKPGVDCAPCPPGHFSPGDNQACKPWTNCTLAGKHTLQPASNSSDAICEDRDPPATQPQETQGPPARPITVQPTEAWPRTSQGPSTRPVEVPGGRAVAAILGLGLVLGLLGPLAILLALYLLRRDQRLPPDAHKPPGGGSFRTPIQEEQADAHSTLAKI
The assay is described as above. As for the experimental part:
as §2

B1: IgG1-CD134-003-HC6LC2-P329R-E345R (antibody)
heavy: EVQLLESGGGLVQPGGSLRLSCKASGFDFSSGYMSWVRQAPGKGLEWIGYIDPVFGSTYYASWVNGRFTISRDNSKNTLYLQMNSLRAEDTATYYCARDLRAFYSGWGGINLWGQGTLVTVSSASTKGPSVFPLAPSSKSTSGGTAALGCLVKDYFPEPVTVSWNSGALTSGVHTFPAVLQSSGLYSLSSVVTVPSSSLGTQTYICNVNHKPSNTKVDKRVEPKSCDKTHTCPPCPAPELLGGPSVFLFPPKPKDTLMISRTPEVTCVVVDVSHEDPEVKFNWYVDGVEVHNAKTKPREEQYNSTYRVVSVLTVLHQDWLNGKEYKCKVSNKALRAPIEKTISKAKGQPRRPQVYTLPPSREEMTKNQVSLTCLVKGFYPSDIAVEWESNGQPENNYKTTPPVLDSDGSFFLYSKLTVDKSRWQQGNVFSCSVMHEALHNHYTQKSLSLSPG
light: AAVLTQSPSSLSASVGDRVTITCQSSQIVVNNNFLSWYQQKPGKAPKLLIYDASNLASGVPDRFSGSGSGTDFTFTISSLQPEDIATYYCLGGYDDDAENAFGGGTKVEIKRTVAAPSVFIFPPSDEQLKSGTASVVCLLNNFYPREAKVQWKVDNALQSGNSQESVTEQDSKDSTYSLSSTLTLSKADYEKHKVYACEVTHQGLSSPVTKSFNRGEC
notes: humanized; human IgG1 with P329R and E345R (Eu numbering), kappa; also called IgG1-CD134-003-HC6LC2-RR
As for B1, the IC50 in assay [1] was 0.086 µg/mL. Besides, the EC50 in assay [2] is 0.017 µg/mL and 0.114 nM. Moreover, the binding result in assay [3] is reported as “binds”; in assay [4], “binds”; in assay [5], “binds”; in assay [6], “no binding (tested: 5 µg/mL)”.
